Target: CAP256 SU gp140 (soluble cleavage-independent HIV-1 subtype C Env gp140 antigen) (HIV-1 subtype C, CAP256 SU virus)
Experiment: SEC + native gel or EMSA; GNL affinity-purified protein in PBS pH 7.4, fractionated on Superdex 200 HiLoad 16/600; pooled peaks resolved by BN-PAGE (NativePAGE 3-12% Bis-Tris) and stained with Coomassie

## CAP256 SU gp140 (soluble cleavage-independent HIV-1 subtype C Env gp140 antigen) (domain or fragment)
  stoichiometry N: 3
